Source: patent US20150267232A1, “IN VIVO AND IN VITRO CARBENE INSERTION AND NITRENE TRANSFER REACTIONS CATALYZED BY HEME ENZYMES” (California Institute of Technology, priority 2012, published 2015)

Experiments:
[1] = Small-scale anaerobic C—H amination with purified enzymes, azide 6; format: biochemical; conditions: 0.1% loading; azide 6
Description: Hemin also was capable of catalyzing this reaction when reduced with dithionite (Table 13).
Small scale reactions containing either 0.1% loading of ABC-CIS or ABC-T268A or 1% loading of hemin with azides 1, 4, or 6 according to standard procedures.
Small-scale reactions (400 μL) were conducted in 2 mL crimp vials (Agilent Technologies, San Diego, Calif.) containing buffer (0.1 M potassium phosphate pH 8.0), enzyme (0.1-0.5% catalyst loading) and oxygen depletion system (10× stock solution containing 14,000 U/mL catalase, 1,000 U/mL glucose oxidase dissolved in 0.1 M KPi pH 8.0). Enzyme (P450 or P411) solution and oxygen depletion mixture were added to the vial with a small stir bar before crimp-sealing. Portions of phosphate buffer (190 μL, 0.1 M, pH=8.0), glucose (40 μL, 250 mM) and NADPH (40 μL, 20 mM), or multiples thereof, were combined in a larger crimp sealed vial and degassed by sparging with argon for at least 5 min. In the meantime, the headspace of the sealed 2 mL reaction vial with the P450 solution was made anaerobic by flushing argon over the protein solution (with no bubbling). The buffer/reductant/glucose solution (270 μL) was syringed into the reaction vial with continuous argon purge of the vial headspace. An arylsulfonyl azide solution in DMSO (10 μL, 80 mM) was added to the reaction vial via a glass syringe, and the reaction was left stirring for 24 h at room temperature under positive argon pressure. Final concentrations of the reagents were typically: 2 mM arylsulfonyl azide, 2 mM NADPH, 25 mM glucose, 2 or 10 μM P450. Reactions were quenched by adding 30 μL 3 M HCl under argon. To the vials were then added acetonitrile (430 uL) and internal standard (o-toluenesulfonamide 10 mM in 50% acetonitrile 50% water, 1 mM final concentration). […] A portion (20 μL) of the supernatant was then analyzed by HPLC. […] Sultam formation was quantified comparison of integrated peak areas of internal standard and sultam at 220 nm to a calibration curve made using synthetically produced sultam and internal standard.

[2] = Small-scale anaerobic C—H amination with purified enzymes, azide 1; format: biochemical
Method in brief: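 Purified P450 or P411 enzymes (0.1-0.5% catalyst loading) in 400 μL reactions of 0.1 M potassium phosphate pH 8.0 with a catalase/glucose oxidase oxygen-depletion system were made anaerobic under argon, given 10 μL of 80 mM arylsulfonyl azide in DMSO, and stirred 24 h at room temperature. After HCl quench and acetonitrile addition, sultam was quantified by HPLC at 220 nm against an internal standard; enantioselectivity was measured by chiral HPLC.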

[3] = CS heme-Na2S2O4 + NADPH (heme domain)
[4] = Complete system (CS), holoenzyme

B1: ABC-T268A: P450BM3 variant: T268A, C400S (protein, listed as Bacillus megaterium)
chain: TIKEMPQPKTFGELKNLPLLNTDKPVQALMKIADELGEIFKFEAPGRVTRYLSSQRLIKEACDESRFDKNLSQALKFVRDFAGDGLFTSWTHEKNWKKAHNILLPSFSQQAMKGYHAMMVDIAVQLVQKWERLNADEHIEVPEDMTRLTLDTIGLCGFNYRFNSFYRDQPHPFITSMVRALDEAMNKLQRANPDDPAYDENKRQFQEDIKVMNDLVDKIIADRKASGEQSDDLLTHMLNGKDPETGEPLDDENIRYQIITFLIAGHEATSGLLSFALYFLVKNPHVLQKAAEEAARVLVDPVPSYKQVKQLKYVGMVLNEALRLWPTAPAFSLYAKEDTVLGGEYPLEKGDELMVLIPQLHRDKTIWGDDVEEFRPERFENPSAIPQHAFKPFGNGQRASIGQQFALHEATLVLGMMLKHFDFEDHTNYELDIKETLTLKPEGFVVKAKSKKIPLGGIPSPSTEQSAKKVRKKAENAHNTPLLVLYGSNMGTAEGTARDLADIAMSKGFAPQVATLDSHAGNLPREGAVLIVTASYNGHPPDNAKQFVDWLDQASADEVKGVRYSVFGCGDKNWATTYQKVPAFIDETLAAKGAENIADRGEADASDDFEGTYEEWREHMWSDVAAYFNLDIENSEDNKSTLSLQFVDSAADMPLAKMHGAFSTNVVASKELQQPGSARSTRHLEIELPKEASYQEGDHLGVIPRNYEGIVNRVTARFGLDASQQIRLEAEEEKLAHLPLAKTVSVEELLQYVELQDPVTRTQLRAMAAKTVCPPHKVELEALLEKQAYKEQVLAKRLTMLELLEKYPACEMKFSEFIALLPSIRPRYYSISSSPRVDEKQASITVSVVSGEAWSGYGEYKGIASNYLAELQEGDTITCFISTPQSEFTLPKDPETPLIMVGPGTGVAPFRGFVQARKQLKEQGQSLGEAHLYFGCRSPHEDYLYQEELENAQSEGIITLHTAFSRMPNQPKTYVQHVMEQDGKKLIELLDQGAHFYICGDGSQMAPAVEATLMKSYADVHQVSEADARLWLQQLEEKGRYAKDVWAG
modifications: cytochrome P450NADPH-P-450 reductase precursor, cytochrome P450 (BM3), CYP102A1
notes: P450BM3 variant: T268A, C400S
- Product (7) [1]: 27
- Product (3) ([2]; 0.1% loading, azide 1, TTN): 135
- TTN ([2]; 0.1 mol % catalyst loading (2 μM), 2 mM azide 1, 2 mM NADPH, benzosultam 3): 120
- % ee ([2]; 0.1 mol % catalyst loading, (S−R)/(S+R), benzosultam 3): 58%
- % activity ([2]; Boiled P450heme): 9.1%
- % ee ([2]; Boiled P450heme): 3%
- TTN ([2]; Boiled P450heme): 10
- % activity ([2]; Boiled P450holo): 30%
- % ee ([2]; Boiled P450holo): 1%
- TTN ([2]; Boiled P450holo): 33
- % activity ([2]; CS + CO): 4.4%
- TTN ([2]; CS + CO): 5
- % activity ([2]; CS aerobic): 9.1%
- % ee ([2]; CS aerobic): 60%
- TTN ([2]; CS aerobic): 10
- % activity ([2]; CS heme): 145%
- % ee ([2]; CS heme): 91%
- TTN ([2]; CS heme (heme domain, 2 mM Na2S2O4)): 160
- % activity ([2]; CS heme + CO): 0%
- TTN ([2]; CS heme + CO): 0
- % activity ([2]; CS heme aerobic): 0%
- TTN ([2]; CS heme aerobic): 0
- % activity [2, 3]: 3.6%
- TTN [2, 3]: 4
- % ee ([2]; CS-NADPH + Na2S2O4): 44%
- TTN ([2]; CS-NADPH + Na2S2O4): 130
- % activity ([2]; CS-NADPH + Na2S2O4, residual activity (CS = 100%)): 120%
- % ee [2, 4]: 38%
- TTN [2, 4]: 110
- activity with reductant NADPH ([2]; NADPH (2 mM), 0.1 mol % loading, azide 1): 110
- activity with reductant Dithionite ([2]; dithionite (2 mM), 0.1 mol % loading, azide 1): 110
